Assay results published in patent US20210388110A1 (published 2021).

Target: T1, soluble human CD3ε chain (human, UniProt P07766 23-126, limits assumed)
T1 construct: the text says soluble human CD3ε chain; also called human CD3 epsilon chain
Experiment: SPR (Biacore)

T1 sequence (P07766 23-126 limits assumed): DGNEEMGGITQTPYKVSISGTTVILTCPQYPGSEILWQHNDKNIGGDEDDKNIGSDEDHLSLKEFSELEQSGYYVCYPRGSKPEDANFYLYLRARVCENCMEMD

Binder | Kd
TR01H082-E22Hh/none-Hi-Kn010G3/L0203-k0 (antibody, human IgG1, kappa, L234A L235A, N297A, single-arm) heavy: QVQLVESGGGLVQPGRSLRLSCAASGFTFSNAWMHWVRQAPGKGLEWVAQIKDKSQNYATYYAESVKGRFTISRDDSKNSLYLQMNSLKTEDTAVYYCRYVHYAAGYGVDAWGQGTTVTVSSASTKGPSVFPLAPSSKSTSGGTAALGCLVKDYFPEPVTVSWNSGALTSGVHTFPAVLQSSGLYSLSSVVTVPSSSLGTQTYICNVNHKPSNTKVDKKVEPKSCDKTHTCPPCPAPEAAGGPSVFLFPPKPKDTLMISRTPEVTCVVVDVSHEDPEVKFNWYVDGVEVHNAKTKPREEQYASTYRVVSVLTVLHQDWLNGKEYKCKVSNKALPAPIEKTISKAKGQPREPQVYTLPPSRCELTKNQVSLSCAVKGFYPSDIAVEWESNGQPENNYKTTPPVLDSDGSFFLVSKLTVDKSRWQQGNVFSCSVMHEALHNHYTQKSLSLSPDYKDDDDK EPKSSDKTHTCPPCPAPELLGGPSVFLFPPKPKDTLMISRTPEVTCVVVDVSHEDPEVKFNWYVDGVEVHNAKTKPREEQYNSTYRVVSVLTVLHQDWLNGKEYKCKVSNKALPAPIEKTISKAKGQPREPQVCTLPPSRDELTKNQVSLWCLVKGFYPSDIAVEWESNGQPENNYKTTPPVLDSDGSFFLYSKLTVDKSRWQQGNVFSCSVMHEALHNRYTQKSLSLSP light: DIVMTQSPLSLPVTPGEPASISCRSSQSPVHSNRNTYIHWYQQKPGQAPRLLIYKVSNRFSGVPDRFSGSGSGTDFTLKISRVEAEDVGVYYCGQGTQVPYTFGQGTKLEIKRTVAAPSVFIFPPSDEQLKSGTASVVCLLNNFYPREAKVQWKVDNALQSGNSQESVTEQDSKDSTYSLSSTLTLSKADYEKHKVYACEVTHQGLSSPVTKSFNRGEC | 40.7 nM
TR01H082-E22Hh/none-Hi-Kn010G3/L0212-k0 (antibody, human IgG1, kappa, L234A L235A, N297A, single-arm) heavy: QVQLVESGGGLVQPGRSLRLSCAASGFTFSNAWMHWVRQAPGKGLEWVAQIKDKSQNYATYYAESVKGRFTISRDDSKNSLYLQMNSLKTEDTAVYYCRYVHYAAGYGVDAWGQGTTVTVSSASTKGPSVFPLAPSSKSTSGGTAALGCLVKDYFPEPVTVSWNSGALTSGVHTFPAVLQSSGLYSLSSVVTVPSSSLGTQTYICNVNHKPSNTKVDKKVEPKSCDKTHTCPPCPAPEAAGGPSVFLFPPKPKDTLMISRTPEVTCVVVDVSHEDPEVKFNWYVDGVEVHNAKTKPREEQYASTYRVVSVLTVLHQDWLNGKEYKCKVSNKALPAPIEKTISKAKGQPREPQVYTLPPSRCELTKNQVSLSCAVKGFYPSDIAVEWESNGQPENNYKTTPPVLDSDGSFFLVSKLTVDKSRWQQGNVFSCSVMHEALHNHYTQKSLSLSPDYKDDDDK EPKSSDKTHTCPPCPAPELLGGPSVFLFPPKPKDTLMISRTPEVTCVVVDVSHEDPEVKFNWYVDGVEVHNAKTKPREEQYNSTYRVVSVLTVLHQDWLNGKEYKCKVSNKALPAPIEKTISKAKGQPREPQVCTLPPSRDELTKNQVSLWCLVKGFYPSDIAVEWESNGQPENNYKTTPPVLDSDGSFFLYSKLTVDKSRWQQGNVFSCSVMHEALHNRYTQKSLSLSP light: DIVMTQSPLSLPVTPGEPASISCRPSQSPVHSNRNTYLHWYQQKPGQAPRLLIYKVSNRFSGVPDRFSGSGSGTDFTLKISRVEAEDVGVYYCYQGTQVPYTFGQGTKLEIKRTVAAPSVFIFPPSDEQLKSGTASVVCLLNNFYPREAKVQWKVDNALQSGNSQESVTEQDSKDSTYSLSSTLTLSKADYEKHKVYACEVTHQGLSSPVTKSFNRGEC | 4.75 nM
TR01H082-E22Hh/none-Hi-Kn010G3/L0258-k0 (antibody, human IgG1, kappa, L234A L235A, N297A, single-arm) heavy: QVQLVESGGGLVQPGRSLRLSCAASGFTFSNAWMHWVRQAPGKGLEWVAQIKDKSQNYATYYAESVKGRFTISRDDSKNSLYLQMNSLKTEDTAVYYCRYVHYAAGYGVDAWGQGTTVTVSSASTKGPSVFPLAPSSKSTSGGTAALGCLVKDYFPEPVTVSWNSGALTSGVHTFPAVLQSSGLYSLSSVVTVPSSSLGTQTYICNVNHKPSNTKVDKKVEPKSCDKTHTCPPCPAPEAAGGPSVFLFPPKPKDTLMISRTPEVTCVVVDVSHEDPEVKFNWYVDGVEVHNAKTKPREEQYASTYRVVSVLTVLHQDWLNGKEYKCKVSNKALPAPIEKTISKAKGQPREPQVYTLPPSRCELTKNQVSLSCAVKGFYPSDIAVEWESNGQPENNYKTTPPVLDSDGSFFLVSKLTVDKSRWQQGNVFSCSVMHEALHNHYTQKSLSLSPDYKDDDDK EPKSSDKTHTCPPCPAPELLGGPSVFLFPPKPKDTLMISRTPEVTCVVVDVSHEDPEVKFNWYVDGVEVHNAKTKPREEQYNSTYRVVSVLTVLHQDWLNGKEYKCKVSNKALPAPIEKTISKAKGQPREPQVCTLPPSRDELTKNQVSLWCLVKGFYPSDIAVEWESNGQPENNYKTTPPVLDSDGSFFLYSKLTVDKSRWQQGNVFSCSVMHEALHNRYTQKSLSLSP light: DIVMTQSPLSLPVTPGEPASISCRSSQPPVHSNRNTYLHWYQQKPGQAPRLLIYKVSNRFSGVPDRFSGSGSGTDFTLKISRVEAEDVGVYYCTQGTQVPYTFGQGTKLEIKRTVAAPSVFIFPPSDEQLKSGTASVVCLLNNFYPREAKVQWKVDNALQSGNSQESVTEQDSKDSTYSLSSTLTLSKADYEKHKVYACEVTHQGLSSPVTKSFNRGEC | 47 nM

Further lines, results first:

Kd | Binder
50.7 nM | TR01H082-E22Hh/none-Hi-Kn010G3/L0259-k0 (antibody, human IgG1, kappa, L234A L235A, N297A, single-arm) heavy: QVQLVESGGGLVQPGRSLRLSCAASGFTFSNAWMHWVRQAPGKGLEWVAQIKDKSQNYATYYAESVKGRFTISRDDSKNSLYLQMNSLKTEDTAVYYCRYVHYAAGYGVDAWGQGTTVTVSSASTKGPSVFPLAPSSKSTSGGTAALGCLVKDYFPEPVTVSWNSGALTSGVHTFPAVLQSSGLYSLSSVVTVPSSSLGTQTYICNVNHKPSNTKVDKKVEPKSCDKTHTCPPCPAPEAAGGPSVFLFPPKPKDTLMISRTPEVTCVVVDVSHEDPEVKFNWYVDGVEVHNAKTKPREEQYASTYRVVSVLTVLHQDWLNGKEYKCKVSNKALPAPIEKTISKAKGQPREPQVYTLPPSRCELTKNQVSLSCAVKGFYPSDIAVEWESNGQPENNYKTTPPVLDSDGSFFLVSKLTVDKSRWQQGNVFSCSVMHEALHNHYTQKSLSLSPDYKDDDDK EPKSSDKTHTCPPCPAPELLGGPSVFLFPPKPKDTLMISRTPEVTCVVVDVSHEDPEVKFNWYVDGVEVHNAKTKPREEQYNSTYRVVSVLTVLHQDWLNGKEYKCKVSNKALPAPIEKTISKAKGQPREPQVCTLPPSRDELTKNQVSLWCLVKGFYPSDIAVEWESNGQPENNYKTTPPVLDSDGSFFLYSKLTVDKSRWQQGNVFSCSVMHEALHNRYTQKSLSLSP light: DIVMTQSPLSLPVTPGEPASISCRSSQSPVHSNRNTYIHWYQQKPGQAPRLLIYKVSNRFSGVPDRFSGSGSGTDFTLKISRVEAEDVGVYYCTQGTQVPYTFGQGTKLEIKRTVAAPSVFIFPPSDEQLKSGTASVVCLLNNFYPREAKVQWKVDNALQSGNSQESVTEQDSKDSTYSLSSTLTLSKADYEKHKVYACEVTHQGLSSPVTKSFNRGEC
45.3 nM | TR01H082-E22Hh/none-Hi-Kn010G3/L0260-k0 (antibody, human IgG1, kappa, L234A L235A, N297A, single-arm) heavy: QVQLVESGGGLVQPGRSLRLSCAASGFTFSNAWMHWVRQAPGKGLEWVAQIKDKSQNYATYYAESVKGRFTISRDDSKNSLYLQMNSLKTEDTAVYYCRYVHYAAGYGVDAWGQGTTVTVSSASTKGPSVFPLAPSSKSTSGGTAALGCLVKDYFPEPVTVSWNSGALTSGVHTFPAVLQSSGLYSLSSVVTVPSSSLGTQTYICNVNHKPSNTKVDKKVEPKSCDKTHTCPPCPAPEAAGGPSVFLFPPKPKDTLMISRTPEVTCVVVDVSHEDPEVKFNWYVDGVEVHNAKTKPREEQYASTYRVVSVLTVLHQDWLNGKEYKCKVSNKALPAPIEKTISKAKGQPREPQVYTLPPSRCELTKNQVSLSCAVKGFYPSDIAVEWESNGQPENNYKTTPPVLDSDGSFFLVSKLTVDKSRWQQGNVFSCSVMHEALHNHYTQKSLSLSPDYKDDDDK EPKSSDKTHTCPPCPAPELLGGPSVFLFPPKPKDTLMISRTPEVTCVVVDVSHEDPEVKFNWYVDGVEVHNAKTKPREEQYNSTYRVVSVLTVLHQDWLNGKEYKCKVSNKALPAPIEKTISKAKGQPREPQVCTLPPSRDELTKNQVSLWCLVKGFYPSDIAVEWESNGQPENNYKTTPPVLDSDGSFFLYSKLTVDKSRWQQGNVFSCSVMHEALHNRYTQKSLSLSP light: DIVMTQSPLSLPVTPGEPASISCRPSQSPVHSNRNTYLHWYQQKPGQAPRLLIYKVSNRFSGVPDRFSGSGSGTDFTLKISRVEAEDVGVYYCTQGTQVPYTFGQGTKLEIKRTVAAPSVFIFPPSDEQLKSGTASVVCLLNNFYPREAKVQWKVDNALQSGNSQESVTEQDSKDSTYSLSSTLTLSKADYEKHKVYACEVTHQGLSSPVTKSFNRGEC
39.8 nM | TR01H082-E22Hh/none-Hi-Kn010G3/L0262-k0 (antibody, human IgG1, kappa, L234A L235A, N297A, single-arm) heavy: QVQLVESGGGLVQPGRSLRLSCAASGFTFSNAWMHWVRQAPGKGLEWVAQIKDKSQNYATYYAESVKGRFTISRDDSKNSLYLQMNSLKTEDTAVYYCRYVHYAAGYGVDAWGQGTTVTVSSASTKGPSVFPLAPSSKSTSGGTAALGCLVKDYFPEPVTVSWNSGALTSGVHTFPAVLQSSGLYSLSSVVTVPSSSLGTQTYICNVNHKPSNTKVDKKVEPKSCDKTHTCPPCPAPEAAGGPSVFLFPPKPKDTLMISRTPEVTCVVVDVSHEDPEVKFNWYVDGVEVHNAKTKPREEQYASTYRVVSVLTVLHQDWLNGKEYKCKVSNKALPAPIEKTISKAKGQPREPQVYTLPPSRCELTKNQVSLSCAVKGFYPSDIAVEWESNGQPENNYKTTPPVLDSDGSFFLVSKLTVDKSRWQQGNVFSCSVMHEALHNHYTQKSLSLSPDYKDDDDK EPKSSDKTHTCPPCPAPELLGGPSVFLFPPKPKDTLMISRTPEVTCVVVDVSHEDPEVKFNWYVDGVEVHNAKTKPREEQYNSTYRVVSVLTVLHQDWLNGKEYKCKVSNKALPAPIEKTISKAKGQPREPQVCTLPPSRDELTKNQVSLWCLVKGFYPSDIAVEWESNGQPENNYKTTPPVLDSDGSFFLYSKLTVDKSRWQQGNVFSCSVMHEALHNRYTQKSLSLSP light: DIVMTQSPLSLPVTPGEPASISCRSSQPPVHSNRNTYLHWYQQKPGQAPRLLIYKVSNRFSGVPDRFSGSGSGTDFTLKISRVEAEDVGVYYCAQGTQVPYTFGQGTKLEIKRTVAAPSVFIFPPSDEQLKSGTASVVCLLNNFYPREAKVQWKVDNALQSGNSQESVTEQDSKDSTYSLSSTLTLSKADYEKHKVYACEVTHQGLSSPVTKSFNRGEC
